Reference: patent publication US20240285790A1

Experiments:
Assay in all cases: cell-based or functional assay
[1] = target: HIV-1JRCSF Env (HIV-1 JRCSF) (UniProt P20871)
[2] = target: HIV-1BG505 Env (HIV-1 BG505)
[3] = target: HIV-1C1086 Env (HIV-1 C1086)
[4] = target: HIV-1ZM109 Env (HIV-1 ZM109)
[5] = target: HIV-1CM244 Env (HIV-1 CM244)
HIV-1YU2 Env (HIV-1 YU2) = HIV-1YU2 Env (HIV-1 YU2) (UniProt P35961)
HIV-1AD8 Env (HIV-1 AD8) = target: HIV-1AD8 Env (HIV-1 AD8)

Chain of HIV-1YU2 Env (HIV-1 YU2) (P35961 32-843 limits assumed): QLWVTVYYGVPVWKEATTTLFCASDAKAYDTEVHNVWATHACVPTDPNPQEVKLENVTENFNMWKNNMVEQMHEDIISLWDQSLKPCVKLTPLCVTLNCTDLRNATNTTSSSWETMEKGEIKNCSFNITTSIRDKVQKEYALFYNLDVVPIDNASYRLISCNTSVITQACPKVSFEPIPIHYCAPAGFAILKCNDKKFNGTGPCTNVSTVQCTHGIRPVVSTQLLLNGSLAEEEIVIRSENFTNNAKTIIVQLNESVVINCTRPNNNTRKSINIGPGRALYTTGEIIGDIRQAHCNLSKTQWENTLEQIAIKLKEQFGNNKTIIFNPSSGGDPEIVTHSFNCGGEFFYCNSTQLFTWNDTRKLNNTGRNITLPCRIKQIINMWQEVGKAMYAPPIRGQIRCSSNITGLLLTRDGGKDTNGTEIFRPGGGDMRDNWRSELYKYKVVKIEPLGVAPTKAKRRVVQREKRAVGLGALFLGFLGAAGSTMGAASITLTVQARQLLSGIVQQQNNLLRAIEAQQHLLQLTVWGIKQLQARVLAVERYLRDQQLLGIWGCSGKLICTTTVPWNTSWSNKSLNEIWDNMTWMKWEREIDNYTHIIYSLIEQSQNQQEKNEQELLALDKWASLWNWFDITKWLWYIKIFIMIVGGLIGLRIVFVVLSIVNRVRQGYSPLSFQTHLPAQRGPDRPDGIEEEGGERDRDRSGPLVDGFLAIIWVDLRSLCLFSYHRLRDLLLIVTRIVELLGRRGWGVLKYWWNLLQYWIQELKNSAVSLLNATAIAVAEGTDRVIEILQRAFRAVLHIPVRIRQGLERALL
Chain of HIV-1JRCSF Env (HIV-1 JRCSF) (P20871 32-848 limits assumed): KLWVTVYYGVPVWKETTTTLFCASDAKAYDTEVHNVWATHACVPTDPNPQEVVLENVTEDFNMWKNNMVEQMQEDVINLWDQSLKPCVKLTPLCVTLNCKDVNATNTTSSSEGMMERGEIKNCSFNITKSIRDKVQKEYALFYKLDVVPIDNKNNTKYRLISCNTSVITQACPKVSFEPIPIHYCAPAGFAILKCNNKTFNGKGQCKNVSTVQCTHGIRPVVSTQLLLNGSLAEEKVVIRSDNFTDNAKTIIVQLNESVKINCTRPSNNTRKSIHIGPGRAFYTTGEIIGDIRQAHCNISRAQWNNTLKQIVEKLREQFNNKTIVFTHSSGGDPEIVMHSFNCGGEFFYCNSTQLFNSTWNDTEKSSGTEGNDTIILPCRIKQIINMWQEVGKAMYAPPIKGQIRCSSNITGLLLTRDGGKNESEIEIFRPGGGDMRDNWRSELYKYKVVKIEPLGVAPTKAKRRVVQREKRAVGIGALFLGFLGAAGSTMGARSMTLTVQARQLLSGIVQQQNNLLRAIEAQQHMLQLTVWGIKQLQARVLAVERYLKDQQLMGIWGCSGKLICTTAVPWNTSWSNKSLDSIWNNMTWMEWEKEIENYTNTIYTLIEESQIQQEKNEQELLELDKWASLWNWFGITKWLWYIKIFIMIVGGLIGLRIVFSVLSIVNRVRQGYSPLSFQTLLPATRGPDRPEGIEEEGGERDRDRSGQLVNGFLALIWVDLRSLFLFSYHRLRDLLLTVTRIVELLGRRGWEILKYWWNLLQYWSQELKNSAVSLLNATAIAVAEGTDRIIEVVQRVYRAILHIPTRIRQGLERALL

Q: What does the source list for 17b-CD4 conjugate?
A: Neutralization IC50 [1]: 0.807 µg/mL; Neutralization IC50 [2]: 2.64 µg/mL; Neutralization IC50 [3]: 0.269 µg/mL; Neutralization IC50 [4]: 0.113 µg/mL; Neutralization IC50 [5]: 0.609 µg/mL; Neutralization IC50 (HIV-1YU2 Env (HIV-1 YU2)): 0.082 µg/mL; Neutralization IC50 (HIV-1AD8 Env (HIV-1 AD8)): 0.877 µg/mL
